# Assay results from patent publication US20210069342A1 (LEGOCHEM BIOSCIENCES, published 2021).
# Where a chain is given by its changes, count along the chain named.
# B1: anti-ROR1 IgG antibody AB4 (antibody, V domains shown)
# VH: EVQLLESGGGLVQPGGSLRLSCAASGFTFSSYDMSWVRQAPGKGLEWVSWISPDSGSIYYADSVKGRFTISRDNSKNTLYLQMNSLRAEDTAVYYCARPTGRFDYWGQGTLVTVSS
# VL: QSVLTQPPSASGTPGQRVTISCSGSSSNIGNNNVNWYQQLPGTAPKLLIYYDNKRPSGVPDRFSGSKSGTSASLAISGLRSEDEADYYCGTWDASLSGYVFGGGTKLTVLG
# notes: Full IgG form (human IgG1 constant region, lambda light chain), expressed in CHO-S cells
# B2: anti-ROR1 IgG antibody A2F3 (antibody, V domains shown)
# VH: B1 VH with D54G, S55G, I58K, P99V, T100N
# VL: B1 VL with N35S, Y51A, N53S, K54H, G90A, A94Y
# notes: as for B1
# B3: anti-ROR1 IgG antibody A2F2 (antibody, V domains shown)
# VH: EVQLLESGGGLVQPGGSLRLSCAASGFTFSDYYMSWVRQAPGKGLEWVSSISPDGSNTYYADSVKGRFTISRDNSKNTLYLQMNSLRAEDTAVYYCAKNLRAFDYWGQGTLVTVSS
# VL: B1 VL with S9P, N31S, N33T, N35Y, Y51A, D52N, N53S, K54Q, T91S, A94Y
# notes: as for B1
# B4: anti-ROR1 IgG antibody BA6 (antibody, V domains shown)
# VH: EVQLLESGGGLVQPGGSLRLSCAASGFTFSNYDMSWVRQAPGKGLEWVSAIYHSGSSKYYADSVKGRFTISRDNSKNTLYLQMNSLRAEDTAVYYCARGGNGAWDTGFDYWGQGTLVTVSS
# VL: B1 VL with N31S, N33D, N35S, K54N, T91A, A94D
# notes: as for B1
# B5: anti-ROR1 IgG antibody CC9 (antibody, V domains shown)
# VH: EVQLLESGGGLVQPGGSLRLSCAASGFTFSSYDMSWVRQAPGKGLEWVSGISHGSGNKYYADSVKGRFTISRDNSKNTLYLQMNSLRAEDTAVYYCAKRLSLRRRPSYYSDNAMDVWGQGTLVTVSS
# VL: B1 VL with S23T, N33A, N53S, K54N, T91A, A94D
# notes: as for B1
# B6: anti-ROR1 IgG antibody D2B12 (antibody, V domains shown)
# VH: EVQLLESGGGLVQPGGSLRLSCAASGFTFSNYDMSWVRQAPGKGLEWVSSISPSSGSSIYYADSVKGRFTISRDNSKNTLYLQMNSLRAEDTAVYYCAKAPGWCQAPSCYYDNAMDVWGQGTLVTVSS
# VL: B1 VL with N33D, N35S, Y51D, N53S, K54Q, T91A, A94D
# notes: as for B1
# B7: anti-ROR1 IgG antibody A2F2 M1 (antibody, V domains shown)
# VH: B3 VH with G55A
# VL: B1 VL with S9P, N31S, N33T, N35Y, Y51A, D52N, N53S, K54Q, T91S, A94Y
# notes: as for B1
# B8: anti-ROR1 IgG antibody BA6 M1 (antibody, V domains shown)
# VH: B4 VH with G102A
# VL: B1 VL with N31S, N33D, N35S, K54N, T91A, A94D
# notes: as for B1
# Target: T1, recombinant human ROR1-His (Sino Biological, 13968-H08H) (human, UniProt Q01973 30-406)
# T1 construct: extracellular domain; Bought protein; also called ROR1-HIS protein; not shown: His tag
# T1 sequence (Q01973 30-406): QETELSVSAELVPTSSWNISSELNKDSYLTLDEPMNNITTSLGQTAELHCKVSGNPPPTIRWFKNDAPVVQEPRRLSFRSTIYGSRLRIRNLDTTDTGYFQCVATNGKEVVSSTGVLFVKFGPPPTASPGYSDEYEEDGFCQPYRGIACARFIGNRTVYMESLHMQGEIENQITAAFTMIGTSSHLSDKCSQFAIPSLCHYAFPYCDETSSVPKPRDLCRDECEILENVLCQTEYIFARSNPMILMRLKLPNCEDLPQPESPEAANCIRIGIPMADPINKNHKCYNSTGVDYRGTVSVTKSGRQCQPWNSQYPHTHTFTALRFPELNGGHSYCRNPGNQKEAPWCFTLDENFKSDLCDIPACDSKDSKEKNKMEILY
# Experiment: BLI (Octet), ROR1-His on Anti-Penta-His or AR2G biosensor, IgG 30 to 0.021 nM, 1:1 fit
# Experimental: A 96-well black microplate (greiner bio one) was mounted on a biosensor tray case, and 200 10×KB or DW was added to each of 8 wells. Then Anti Penta His biosensors or 8 AR2G biosensors (ForteBio, USA) were inserted to hydrate for 10 minutes. 600 of the assay samples were diluted 2-fold or 3-fold to the appropriate assay concentrations, using 1×KB or 10×KB to 30 to 0.021 nM. To immobilize the antigen, recombinant human ROR1-His (Sino Biological, 13968-H08H) was diluted to 1 /ML with 10×KB or Sodium Acetate pH5 buffer. Immobilization was fixed at a threshold of 0.3 nm in the loading step. The association assay was carried out for 3 to 10 minutes, and the dissociation assay was carried out for 20 minutes. According to the Octet program template, the buffer was placed in a new 96-well black microplate according to order. As Baseline1, 200 10×KB or DW was placed. Then 200 each of 1 /mL of the antigen to be loaded, the ROR1-HIS protein, was added. As Baseline2, 200 10×KB or 1×KB was placed. Then to each well 30 to 0.021 nM of the diluted antibody and 200 each of 10×KB buffer or 1×KB corresponding to a reference blank was added. The temperature of the test plate was fixed at 30° C. After all of the samples were introduced, the equipment was started, and after the assay was completed, results were uploaded to the Octet Analysis 90 software, with KD values analyzed through 1:1 fitting. By obtaining KD values through the Octet assay method, it was confirmed that the anti-ROR1 antibody had strong binding potential to ROR1 antigen.
Binder,Kd,koff,kon
B1,0.0639 nM,0.000116 s⁻¹,1.81e+06 M⁻¹ s⁻¹
B2,0.024 nM,3.31e-05 s⁻¹,1.38e+06 M⁻¹ s⁻¹
B3,0.0773 nM,0.000119 s⁻¹,1.53e+06 M⁻¹ s⁻¹
B4,0.0937 nM,0.000231 s⁻¹,2.47e+06 M⁻¹ s⁻¹
B5,0.754 nM,0.000551 s⁻¹,731000 M⁻¹ s⁻¹
B6,0.803 nM,0.000361 s⁻¹,450000 M⁻¹ s⁻¹

# Target: T1, recombinant human ROR1-His (Sino …)
# Experiment: ELISA, wells coated with human ROR1 protein (sheet: 'human ROR1'; text: ROR1-Fc or ROR1-His), IgG titrated, HRP anti-Fab detection, OD (450-650nm)
# Experimental: (§1) Anti-ROR1 antibody antigen binding affinity was assessed using an ELISA-based solution binding assay. Specifically, a 96-well microtiter plate (Nunc-Immuno Plates), NUNC) was coated for 16 hours at 4° C. with the ROR1 protein described below at a concentration of 1 in PBS solution, and non-specific binding sites were blocked for 2 hours with 3% BSA (bovine serum albumin). Here, the ROR1 protein used was, in the case of human ROR1, the ROR1-Fc or recombinant human ROR1-His (Sino Biological, 13968-H08H) of Embodiment 1. The ROR1-His used in ELISA, as stated in the above sentence, was a protein from the Sino Biological company (13968-H08H), and the ROR1-His of Embodiment 1 or recombinant mouse ROR1 protein was used (Acrobiosystems, RO1-M5221-100 )
# (§2) Subsequently, the anti-ROR1 antibodies prepared in Embodiment 3 were added at the concentrations stated in FIG. 2 to a 96-well microtiter plate, and binding capacity was analyzed using ELISA as follows. Specifically, after incubating for 2 hours, the plate was washed 5 times with PBS containing 0.05% Tween 20, then HRP-conjugated Fab multiclonal antibody reagent (Perce, 31414) was diluted to 1:10,000 and placed in the washed microtiter plate. After reacting for 1 hour at 37° C., the ROR1 antibodies bonded to the plate were detected. After the reaction, color development was performed using TMB (Tetramethylbenzidine, Sigma, T0440). The enzymatic reaction was stopped using 0.5 mol/L sulfuric acid, and absorbance at 450 nm and 650 nm was measured (450 nm-650 nm) using a micro plate reader (Molecular Device)
row,Binder,EC50 (read off the curve)
1,B1,~200 pM
2,B2,~600 pM
3,B3,~200 pM
4,B4,~200 pM
5,B5,~300 pM
6,B6,~200 pM

# Target: T2, human ROR1 expressed on the cell surface (human, UniProt Q01973 30-937)
# T2 construct: whole, on cells; also called cell surface-expressed ROR1 antigen; ROR1 on JeKo-1, Mino, CHO-human ROR1, MC38-human ROR1 and other cancer cell lines
# T2 sequence (Q01973 30-937): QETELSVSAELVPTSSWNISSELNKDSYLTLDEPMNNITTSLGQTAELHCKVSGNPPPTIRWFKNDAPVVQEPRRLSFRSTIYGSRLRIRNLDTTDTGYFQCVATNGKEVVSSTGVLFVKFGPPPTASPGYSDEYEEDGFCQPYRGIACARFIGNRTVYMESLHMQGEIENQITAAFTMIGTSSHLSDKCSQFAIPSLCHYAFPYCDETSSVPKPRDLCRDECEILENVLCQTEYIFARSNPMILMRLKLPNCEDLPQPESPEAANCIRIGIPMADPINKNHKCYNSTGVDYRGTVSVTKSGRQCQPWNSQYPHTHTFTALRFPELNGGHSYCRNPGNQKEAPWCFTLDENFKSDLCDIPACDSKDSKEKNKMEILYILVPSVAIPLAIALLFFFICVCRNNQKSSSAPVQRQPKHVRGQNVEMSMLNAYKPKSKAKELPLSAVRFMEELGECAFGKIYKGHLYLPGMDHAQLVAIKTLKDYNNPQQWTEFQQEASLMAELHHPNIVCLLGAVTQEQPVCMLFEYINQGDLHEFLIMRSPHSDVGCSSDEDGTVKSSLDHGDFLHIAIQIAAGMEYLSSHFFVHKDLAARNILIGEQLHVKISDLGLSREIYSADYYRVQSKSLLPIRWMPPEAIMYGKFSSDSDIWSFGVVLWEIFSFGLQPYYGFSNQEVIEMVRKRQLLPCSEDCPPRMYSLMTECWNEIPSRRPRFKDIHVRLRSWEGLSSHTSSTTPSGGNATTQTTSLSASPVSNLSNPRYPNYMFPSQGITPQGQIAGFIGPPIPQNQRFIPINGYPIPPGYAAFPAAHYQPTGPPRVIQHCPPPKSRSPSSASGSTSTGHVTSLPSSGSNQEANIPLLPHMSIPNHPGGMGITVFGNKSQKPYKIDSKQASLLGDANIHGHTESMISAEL
# Experiment: flow cytometry on MC38-human ROR1 cells, IgG titrated, FITC anti-human Fc detection, MFI ratio to 2nd Ab alone; log axis whose first tick is printed 0
# Source text: (§3) For this experiment, using cell lines (FIG. 5 and FIG. 7, respectively) transiently (CHO-human ROR1, CHO-human ROR2, CHO-mouse ROR1) or stably (MC38-human ROR1) transfected with ROR1 gene to achieve artificial over-expression of ROR1 protein, an ROR1-expressing cell line (JeKo-1, Mino) (FIG. 6), a non ROR1-expressing cell line (MCF7) (FIG. 6) and a FACSCalibur (BD Biosciences) device was used to measure the degree to which anti-ROR1 antibody and ROR1 were bound, as follows. […] JeKo-1, Mino, CHO-human ROR1, CHO-mouse ROR1 and MC38-human ROR1 are all cell lines which express human ROR1 or mouse ROR1.
# (§4) Specifically, after dissociating each cell line and washing in PBS, the number of cells was counted and adjusted to 2×10⁵ cells/200 PBS. Then the respective ROR1 monoclonal antibodies prepared in Embodiment 3 were diluted 5 times from 10 /mL or 10 /mL, then reacted for 1 hour at 4° C. After the reaction, the cells were washed in PBS, then FITC-marked constant region (Fc) specific antibody (Goat anti-human IgG FITC conjugate, Fc specific, Sigma, F9512, concentration 20 mg/ml) was suspended in 2 /1×10⁵ cells/200 PBS and reacted for 1 hour at 4° C. As for identification of the degree of expression of the transiently over-expressed human ROR1, human ROR2 and mouse ROR1, a commercially available FACS analysis antibody (anti-ROR1: R&D Systems, FAB 2000G, anti-ROR2: R&D, FAB20641P) was used. After reacting the cells were washed in PBS and analyzed using a FACSCalibur device. The negative control (2nd Ab) was only treated with FITC-marked constant region (Fc) specific antibody. The shifted readings for the respective experimental groups treated with ROR1 monoclonal antibody were compared against the shifted reading for the control group (MFI Ratio: MFI of anti-ROR1/MFI of 2nd Ab).
row,Binder,EC50 (read off the curve)
1,B1,~100 ng/mL
2,B2,~200 ng/mL
3,B3,~100 ng/mL
4,B4,~100 ng/mL
5,B6,~200 ng/mL

# Target: T3, recombinant mouse ROR1 protein (Acrobiosystems, RO1-M5221) (mouse, UniProt Q9Z139 30-403)
# T3 construct: Bought protein; also called mouse ROR1 antigen
# T3 sequence (Q9Z139 30-403 limits assumed): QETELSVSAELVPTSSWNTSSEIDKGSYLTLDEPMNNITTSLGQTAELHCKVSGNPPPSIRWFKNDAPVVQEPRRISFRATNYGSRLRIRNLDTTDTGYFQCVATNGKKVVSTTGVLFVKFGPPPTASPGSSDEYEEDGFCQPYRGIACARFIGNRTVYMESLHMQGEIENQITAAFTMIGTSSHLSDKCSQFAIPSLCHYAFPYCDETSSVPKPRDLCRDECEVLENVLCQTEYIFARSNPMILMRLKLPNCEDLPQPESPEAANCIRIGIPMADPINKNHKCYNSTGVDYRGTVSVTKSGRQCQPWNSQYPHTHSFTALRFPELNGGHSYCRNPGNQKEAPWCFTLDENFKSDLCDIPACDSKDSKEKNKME
# Experiment: ELISA, wells coated with recombinant mouse ROR1 protein, IgG titrated, HRP anti-Fab detection, OD (450-650nm)
# Experimental: as §1, §2
Binder,EC50 (read off the curve),binding result
B1,~200 pM,
B2,~700 pM,
B3,~300 pM,
B4,,binds
B5,,binds
B6,~300 pM,

# Target: T4, human ROR2 over-expressed on CHO cells (CHO-human ROR2) (human, UniProt Q01974 34-943)
# T4 construct: whole, on cells; Negative control; also called family protein human ROR2
# T4 sequence (Q01974 34-943): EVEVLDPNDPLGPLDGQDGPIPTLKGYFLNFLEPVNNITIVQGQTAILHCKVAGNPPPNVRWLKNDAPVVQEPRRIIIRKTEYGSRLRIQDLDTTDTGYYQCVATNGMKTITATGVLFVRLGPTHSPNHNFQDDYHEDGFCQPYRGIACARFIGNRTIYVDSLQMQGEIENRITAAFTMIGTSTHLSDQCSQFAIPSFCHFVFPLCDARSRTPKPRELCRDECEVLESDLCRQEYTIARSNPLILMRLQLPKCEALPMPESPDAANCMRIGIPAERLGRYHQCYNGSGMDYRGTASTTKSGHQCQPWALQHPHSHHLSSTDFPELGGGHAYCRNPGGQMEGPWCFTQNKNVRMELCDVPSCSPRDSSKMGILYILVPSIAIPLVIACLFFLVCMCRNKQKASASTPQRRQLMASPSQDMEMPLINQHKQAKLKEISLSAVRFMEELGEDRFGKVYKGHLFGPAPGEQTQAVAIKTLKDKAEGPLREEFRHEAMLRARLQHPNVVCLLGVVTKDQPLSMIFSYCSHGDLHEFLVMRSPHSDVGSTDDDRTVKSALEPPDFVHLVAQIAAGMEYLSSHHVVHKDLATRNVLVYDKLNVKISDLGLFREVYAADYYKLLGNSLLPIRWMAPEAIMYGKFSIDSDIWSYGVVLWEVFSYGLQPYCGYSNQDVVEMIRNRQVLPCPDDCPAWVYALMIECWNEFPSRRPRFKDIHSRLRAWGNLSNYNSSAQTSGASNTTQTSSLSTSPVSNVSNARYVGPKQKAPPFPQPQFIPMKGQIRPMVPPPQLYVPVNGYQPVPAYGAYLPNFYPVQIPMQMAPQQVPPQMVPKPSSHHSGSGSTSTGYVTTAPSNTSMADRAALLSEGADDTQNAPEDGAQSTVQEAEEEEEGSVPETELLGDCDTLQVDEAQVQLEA
# Experiment: flow cytometry, CHO-human ROR2 cells
# Source text: as §3
# (§5) Specifically, after dissociating each cell line and washing in PBS, the number of cells was counted and adjusted to 2×10⁵ cells/200 PBS. Then the respective ROR1 monoclonal antibodies prepared in Embodiment 3 were diluted 5 times from 10 /mL or 10 /mL, then reacted for 1 hour at 4° C. […] After reacting the cells were washed in PBS and analyzed using a FACSCalibur device. […] The shifted readings for the respective experimental groups treated with ROR1 monoclonal antibody were compared against the shifted reading for the control group (MFI Ratio: MFI of anti-ROR1/MFI of 2nd Ab).
row,Binder,binding result
1,B5,no binding

# Target: T5, mouse ROR1 over-expressed on CHO cells (CHO-mouse ROR1) (mouse, UniProt Q9Z139 30-937)
# T5 construct: whole, on cells; also called cell surface-expressed mouse ROR1
# T5 sequence (Q9Z139 30-937): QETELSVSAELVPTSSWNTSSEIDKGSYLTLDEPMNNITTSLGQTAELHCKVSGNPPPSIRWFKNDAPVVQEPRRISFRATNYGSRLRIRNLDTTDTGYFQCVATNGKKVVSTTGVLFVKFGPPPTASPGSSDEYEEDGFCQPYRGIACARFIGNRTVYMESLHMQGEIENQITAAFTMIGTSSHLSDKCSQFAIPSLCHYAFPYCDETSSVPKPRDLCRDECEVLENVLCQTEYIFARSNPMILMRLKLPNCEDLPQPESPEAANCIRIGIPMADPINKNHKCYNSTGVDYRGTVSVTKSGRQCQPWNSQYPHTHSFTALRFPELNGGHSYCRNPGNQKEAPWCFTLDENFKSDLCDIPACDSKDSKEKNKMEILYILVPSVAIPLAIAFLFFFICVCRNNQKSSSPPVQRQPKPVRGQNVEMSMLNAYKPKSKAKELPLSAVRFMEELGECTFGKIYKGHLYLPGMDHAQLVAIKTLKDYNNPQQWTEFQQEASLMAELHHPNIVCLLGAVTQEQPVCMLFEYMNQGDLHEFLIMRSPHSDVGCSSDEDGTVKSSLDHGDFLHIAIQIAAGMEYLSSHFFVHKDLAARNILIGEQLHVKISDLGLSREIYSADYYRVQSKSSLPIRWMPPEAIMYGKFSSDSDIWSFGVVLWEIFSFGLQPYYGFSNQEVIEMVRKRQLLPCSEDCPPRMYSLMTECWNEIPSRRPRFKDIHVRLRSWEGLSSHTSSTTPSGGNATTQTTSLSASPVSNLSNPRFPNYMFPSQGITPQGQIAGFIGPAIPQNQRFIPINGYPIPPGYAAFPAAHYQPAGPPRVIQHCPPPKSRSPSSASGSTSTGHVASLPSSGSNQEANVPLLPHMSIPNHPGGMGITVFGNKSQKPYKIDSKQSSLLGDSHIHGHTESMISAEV
# Experiment: flow cytometry, CHO-mouse ROR1 cells
# Source text: as §3, §4
row,Binder,binding result
1,B7,binds
2,B8,binds
3,B5,binds

# Target: T5, mouse ROR1 over-expressed on CHO cells …
# Experiment: flow cytometry on CHO-S cells transiently over-expressing mouse ROR1, FITC anti-human Fc detection, MFI ratio to 2nd Ab alone
# Source text: as §3, §5
row,Binder,binding result
1,B4,binds

# Target: T1, recombinant human ROR1-His (Sino …)
# Experiment: ELISA, wells coated with human ROR1 protein (sheet: 'human ROR1'; text: ROR1-Fc or ROR1-His), IgG titrated, OD(450nm-650nm); x axis 'conc(nM)' numbered -5 to 2 (log10)
# Experimental: as §1, §2
row,Binder,EC50 (read off the curve)
1,B3,~0.04 nM
2,B7,~0.04 nM
3,B4,~0.05 nM
4,B8,~0.06 nM

# Target: T3, recombinant mouse ROR1 protein …
# Experiment: ELISA, IgG on coated mouse ROR1
# Experimental: as §1
# Subsequently, the anti-ROR1 antibodies prepared in Embodiment 3 were added at the concentrations stated in FIG. 2 to a 96-well microtiter plate, and binding capacity was analyzed using ELISA as follows. […] After reacting for 1 hour at 37° C., the ROR1 antibodies bonded to the plate were detected. […] The enzymatic reaction was stopped using 0.5 mol/L sulfuric acid, and absorbance at 450 nm and 650 nm was measured (450 nm-650 nm) using a micro plate reader (Molecular Device)
row,Binder,binding result
1,B7,binds
2,B8,binds

# Target: T4, human ROR2 over-expressed on CHO cells …
# Experiment: flow cytometry on CHO-S cells transiently over-expressing human ROR2, FITC anti-human Fc detection, MFI ratio to 2nd Ab alone
# Source text: as §3, §4
row,Binder,binding result
1,B1,no binding
2,B2,no binding
3,B3,no binding
4,B4,no binding
5,B6,no binding
